This is an account of results in paper PMC6951436.

Test [1] has as its target pyruvate kinase liver isoform (PKL) (UniProt P12928). As to the kind of experiment: native PAGE of oligomeric state. The settings on record: reference: non-phosphorylated PKL (WT); sites S113.
Test [2] shares this target. As to the kind of experiment: size-exclusion chromatography of oligomeric state. Conditions: reference: non-phosphorylated PKL (WT); sites S113. (In general: SEC sorts molecules by how far they enter the pores of the column.)

Sequence of pyruvate kinase liver isoform (PKL) (from UniProt P12928-2) PKL pS113 proteoform (P12928 whole entry, looked up, change not shown, canonical isoform): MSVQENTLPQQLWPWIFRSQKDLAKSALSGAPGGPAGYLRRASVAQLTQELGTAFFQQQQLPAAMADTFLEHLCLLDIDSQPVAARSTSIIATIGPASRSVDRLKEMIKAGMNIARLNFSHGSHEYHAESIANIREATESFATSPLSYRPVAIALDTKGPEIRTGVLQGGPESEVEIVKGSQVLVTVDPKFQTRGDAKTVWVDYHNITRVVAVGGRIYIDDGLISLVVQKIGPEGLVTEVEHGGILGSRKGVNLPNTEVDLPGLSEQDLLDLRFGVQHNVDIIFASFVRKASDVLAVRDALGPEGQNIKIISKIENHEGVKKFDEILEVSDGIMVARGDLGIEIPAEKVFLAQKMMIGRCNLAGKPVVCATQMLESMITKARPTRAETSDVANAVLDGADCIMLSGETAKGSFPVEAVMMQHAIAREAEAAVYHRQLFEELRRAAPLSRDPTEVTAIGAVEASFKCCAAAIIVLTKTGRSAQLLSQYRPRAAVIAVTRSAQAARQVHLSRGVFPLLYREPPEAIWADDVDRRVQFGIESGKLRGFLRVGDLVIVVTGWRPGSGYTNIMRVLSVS
Sequence of pyruvate kinase liver isoform (PKL) (UniProt P12928) (P12928 whole entry, looked up, canonical isoform): as the sequence (P12928 whole entry, looked up, change not shown, canonical isoform) above

In the case of “pyruvate kinase liver isoform (PKL) (from UniProt P12928-2) PKL pS113 proteoform”, the “binding against the reference” value in test [1] and in test [2] was “same” throughout.
